From PMC6120557

Target: chemokine receptor 4 (CXCR4), GFP‐tagged, on MDAMB231 X4 cells (human) (UniProt P61073)
Test: flow cytometry on cells

UniProt P61073, sequence (P61073 whole entry): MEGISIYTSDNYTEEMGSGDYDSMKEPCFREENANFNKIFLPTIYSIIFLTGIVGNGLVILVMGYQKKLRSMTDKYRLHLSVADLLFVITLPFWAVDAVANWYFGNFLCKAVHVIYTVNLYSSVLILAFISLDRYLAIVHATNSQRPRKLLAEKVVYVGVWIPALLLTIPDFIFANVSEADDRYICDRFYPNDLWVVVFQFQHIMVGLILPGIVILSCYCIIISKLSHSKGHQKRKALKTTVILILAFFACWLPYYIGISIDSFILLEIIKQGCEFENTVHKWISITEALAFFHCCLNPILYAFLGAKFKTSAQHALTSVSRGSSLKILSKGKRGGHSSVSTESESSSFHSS

| Kd [nM] | Substance |
| --- | --- |
| 222 | N3‐Cy5‐AcTZ14011 (peptide) |
| > 500 | Cy5‐S‐S‐Cy3‐AcTZ14011 (peptide) |
